The target in this data set is T1, I-SceI (UniProt P03882).
T1 sequence: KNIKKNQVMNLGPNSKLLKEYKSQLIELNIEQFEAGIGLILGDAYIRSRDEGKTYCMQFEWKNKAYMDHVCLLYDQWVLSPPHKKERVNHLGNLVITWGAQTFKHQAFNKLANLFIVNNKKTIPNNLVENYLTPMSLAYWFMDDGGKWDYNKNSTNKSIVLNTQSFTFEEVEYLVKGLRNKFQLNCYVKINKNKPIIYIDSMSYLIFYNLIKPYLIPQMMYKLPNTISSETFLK
Description: cell_activity. The conditions noted are these: protein delivered to N. tabacum protoplasts, SSA assay; 0.49% when delivered as DNA; 2.4% sequential delivery.

Take I-SceI site in YFP SSA plasmid: the activity stood at 4.4 % YFP.

The record behind these values is US20210002656.
